Among the data in the supplement of paper PMC10598134 are collision cross section values, retold here.

± gives the standard deviation.

Series [1] is described as follows: collision cross section of unmodified peptide (TIMS, N2, iRT-aligned); higher = larger / more extended gas-phase ion. The method, then: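 Unmodified synthetic counterpart peptides (ProteomeTools / JPT), analysed by nanoLC-TIMS-QTOF (dda-PASEF). 1/K0 was aligned run-wise to spiked iRT peptides and converted to CCS in N2 (Mason-Schamp). Values are the mean of 1-3 technical replicates for the most abundant feature at each charge state. The same unmodified peptide is repeated across rows and is averaged.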

Series [2] can be described thus: collision cross section of modified peptide (TIMS, N2, iRT-aligned); higher = larger / more extended gas-phase ion. In a few lines:
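Synthetic peptide pools (~100 fmol/µL in 2% acetonitrile/0.1% formic acid, iRT standard spiked 1:40) were separated on a 120-min nanoflow C18 gradient at 60 °C. They were analysed on a timsTOF Pro/HT (dda-PASEF, nitrogen, ~2.4 mbar) and identified with MaxQuant. 1/K0 was calibrated with three reference ions and aligned run-wise to the median iRT peptide deviation. Collision cross section came from the Mason-Schamp equation, averaging 1–3 technical replicates of the most abundant feature per charge state.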

The mark [3] stands for this setting: charge state: 2, modification: hydroxyisobutyryl.
[4] abbreviates: charge state: 3, modification: hydroxyisobutyryl.
The mark [5] stands for this setting: charge state: 2, modification: Phospho (Y).
Setting [6] is: charge state: 3, modification: Trimethyl (K).
[7] abbreviates: charge state: 2, modification: Citrullination (R).

In the case of APVGSVVSVPSQSSASSDK, in series [1] (charge state: 2), the collision cross section was determined as 452.28 ± 0.77 Å². For the sequence YIGTGHADTTK, the figures for the collision cross section in series [1] (charge state: 2) and in series [1] (charge state: 3) were 357.91 ± 0.48 Å² and 452.61 ± 1.1 Å², respectively.

With VHATSTYR, the collision cross section came to 325.88 ± 0.49 Å² in series [1] (charge state: 2) and 398.18 ± 1.6 Å² in series [1] (charge state: 3). In the same order, the values of DKALPLEAEVAPVK are 407.43 ± 3.2 Å² and 507.63 ± 4.6 Å².

Take VYVGNLGTGAGK: the collision cross section in series [1] (charge state: 2) is on record as 357.65 ± 0.15 Å². On to IGAEVYHHLK, for which the collision cross section turned out to be 371.39 ± 0.54 Å² in series [1] (charge state: 2) and 435.97 ± 1.1 Å² in series [1] (charge state: 3). In the same order, the values of PLPVALQTRLAK are 398.31 ± 0.59 Å² and 471.01 ± 3.4 Å².

As for GEVGAGAGPGAQAGPSAKR, the collision cross section amounted to 436.7 ± 2.1 Å² in series [1] (charge state: 2) and 469.26 ± 5.9 Å² in series [1] (charge state: 3).

Turning to LQDVSGQLSSSKK, the collision cross section in series [1] (charge state: 2) turned out to be 403.09 ± 1.5 Å²; in series [1] (charge state: 3), 463.47 ± 6.3 Å².

FGYVDFESAEDLEK displayed a collision cross section in series [1] (charge state: 2) of 428.91 ± 0.24 Å².

For LGPPGNPGPSGSPGPK, the collision cross section in series [1] (charge state: 2) was determined as 383.56 ± 0.58 Å²; in series [1] (charge state: 3), 453.1 ± 18 Å². For PAVTAAPK, in series [1] (charge state: 2), the collision cross section stood at 290.54 ± 0.15 Å².

Take PRGVISTPVIR: the collision cross section in series [1] (charge state: 2) amounted to 371.76 ± 0.55 Å²; in series [1] (charge state: 3), 450.44 ± 3.9 Å².

Turning to GKLGVPGLPGYPGR, the collision cross section turned out to be 385.87 ± 0.86 Å² in series [1] (charge state: 2) and 480.85 ± 1.2 Å² in series [1] (charge state: 3). In series [1] (charge state: 2), GDIGETGVPGAEGPR gave a collision cross section of 381.04 ± 0.92 Å². As to LLEEEDSKLK, the collision cross section in series [1] (charge state: 2) is recorded as 382.28 ± 0.34 Å²; in series [1] (charge state: 3), 444.51 ± 4.2 Å². In the case of GGGFGAHGRGR, the collision cross section in series [1] (charge state: 2) was determined as 350.63 ± 2.6 Å²; in series [1] (charge state: 3), 420.87 ± 5.1 Å². With YEQEHAAIQDKLFQVAK, in series [1] (charge state: 3), the collision cross section is recorded as 555.79 ± 2.3 Å². For ASDTSSETVFGKR, the collision cross section in series [1] (charge state: 2) is 399.16 ± 2.1 Å²; in series [1] (charge state: 3), 477.62 ± 3.6 Å². In the case of SSDLTDRVK, the collision cross section in series [1] (charge state: 2) came out at 344.22 ± 0.14 Å²; in series [1] (charge state: 3) it was 424.95 ± 0.87 Å². In the same order, the values of GEPGQGLRGLQGPPGK are 417.18 ± 1.2 Å² and 443.35 ± 0.85 Å². Sequence GYLGPEQLPDCLK registered a collision cross section in series [1] (charge state: 2) of 401.23 ± 0.16 Å².

Take SGATAGAAGGRGK: the collision cross section amounted to 361.16 ± 1.5 Å² in series [1] (charge state: 2) and 443.5 ± 4.6 Å² in series [1] (charge state: 3).

As to TVQGPPGEPGR, the collision cross section in series [1] (charge state: 2) is on record as 344.87 ± 3.1 Å². For the sequence GDKGDAGEPGR, the collision cross section in series [1] (charge state: 2) was 331.44 ± 0.79 Å²; in series [1] (charge state: 3), 419.58 ± 2 Å². KSQAGASELGPFSDPR yielded a collision cross section in series [1] (charge state: 3) of 497 ± 1.7 Å².

As to YSRGAGLGFSTAPNK, the collision cross section is on record as 407.91 ± 1.8 Å² in series [1] (charge state: 2) and 476.78 ± 0.4 Å² in series [1] (charge state: 3). The matching figures for SPASDTYIVFGEAK: 403.4 ± 0.16 Å² and 478.14 ± 0.9 Å². As for FGDSRGGGGNFGPGPGSNFR, the collision cross section in series [1] (charge state: 3) came to 494.59 ± 1.9 Å². For IHPEGPPLK, the collision cross section in series [1] (charge state: 2) turned out to be 335.79 ± 0.58 Å²; in series [1] (charge state: 3), 438.33 ± 2 Å².

Sequence GFPGAPGLPGLKGHR displayed a collision cross section in series [1] (charge state: 3) of 475.59 ± 1.2 Å². As for IGNSYFKEEK, the figures for the collision cross section in series [1] (charge state: 2) and in series [1] (charge state: 3) were 377.24 ± 0.91 Å² and 453.77 ± 3.2 Å², respectively.

For RGATPPAPPR, the collision cross section in series [1] (charge state: 2) stood at 338.24 ± 0.44 Å²; in series [1] (charge state: 3) it was 461.07 ± 2.4 Å². Take LLALSGPGGGRGR: the collision cross section was found to be 381.45 ± 1.3 Å² in series [1] (charge state: 2) and 451.48 ± 1.9 Å² in series [1] (charge state: 3). In the same order, the values of ASNAAVKLAESK are 381.6 ± 0.7 Å² and 452.24 ± 3.2 Å².

Turning to SPDEAYAIAKK, the collision cross section was 371.22 ± 1.1 Å² in series [1] (charge state: 2) and 435.25 ± 4.4 Å² in series [1] (charge state: 3). The matching figures for GGPGGELPRGPQAGLGPR: 431.54 Å² and 491.33 ± 3.4 Å². LEENHYNTYISK: the collision cross section in series [1] (charge state: 2) worked out at 419.55 ± 1 Å²; in series [1] (charge state: 3) it was 465.19 ± 1.2 Å².

Sequence GQQGEPGPK gave a collision cross section in series [1] (charge state: 2) of 313.75 ± 0.93 Å². As to AGQKLIDVNHYAK, the figures for the collision cross section in series [1] (charge state: 2) and in series [1] (charge state: 3) were 420.25 ± 2.7 Å² and 474.66 ± 4.5 Å², respectively. In series [1] (charge state: 2), YSTSGSSGLTTGK gave a collision cross section of 373.3 ± 0.54 Å². PLRAASPFR [_PLR(Methyl (R))AASPFR_]: the collision cross section in series [2] (charge state: 2, modification: Methyl (R)) is listed as 351.73 ± 0.9 Å²; in series [2] (charge state: 3, modification: Methyl (R)), 447.48 ± 3.2 Å².

“GEVGAGAGPGAQAGPSAKR [_GEVGAGAGPGAQAGPSAK(hydroxyisobutyryl)R_]”: the collision cross section in series [2] (setting [3]) worked out at 426.95 ± 0.56 Å²; in series [2] (setting [4]), 486.12 ± 1.9 Å². ALYETELADAR [_ALY(Nitro (Y))ETELADAR_] returned a collision cross section in series [2] (charge state: 2, modification: Nitro (Y)) of 387.94 ± 0.55 Å². In the case of VHATSTYR [_VHATSTY(Phospho (Y))R_], the collision cross section is 330.17 ± 0.75 Å² in series [2] (setting [5]) and 411.28 Å² in series [2] (charge state: 3, modification: Phospho (Y)). Turning to “SLGEPAAGEGSAKR [_SLGEPAAGEGSAK(Succinyl)R_]”, the collision cross section in series [2] (charge state: 2, modification: Succinyl) was determined as 381.88 ± 0.8 Å²; in series [2] (charge state: 3, modification: Succinyl), 476.57 ± 0.7 Å². For “ANEKTESSSAQQVAVSR [_ANEK(Formyl)TESSSAQQVAVSR_]”, the collision cross section in series [2] (charge state: 2, modification: Formyl) is 431.82 ± 1.4 Å²; in series [2] (charge state: 3, modification: Formyl), 523.66 ± 4.2 Å². With “SDSGKPYYYNSQTK [_SDSGK(Trimethyl (K))PYYYNSQTK_]”, the collision cross section in series [2] (setting [6]) was determined as 473.28 ± 2.4 Å². With “DYSAPVNFISAGLKK [_DYSAPVNFISAGLK(hydroxyisobutyryl)K_]”, the collision cross section in series [2] (setting [3]) came out at 443.11 ± 0.56 Å²; in series [2] (setting [4]), 536.52 ± 2.1 Å². Take “LLRGVGGSHGR [_LLR(Citrullination (R))GVGGSHGR_]”: the collision cross section in series [2] (setting [7]) turned out to be 372.77 ± 0.65 Å²; in series [2] (charge state: 3, modification: Citrullination (R)), 442.38 ± 1.8 Å². Regarding “DYQPGITFIVVQKR [_DYQP(Hydroxyproline)GITFIVVQKR_]”, the collision cross section in series [2] (charge state: 2, modification: Hydroxyproline) worked out at 449.25 ± 1.9 Å²; in series [2] (charge state: 3, modification: Hydroxyproline), 517.44 ± 1.2 Å². “SGGRGVSVSSAR [_SGGR(Citrullination (R))GVSVSSAR_]” came in with a collision cross section in series [2] (setting [7]) of 351.18 ± 4.8 Å².

“TTGFYSGFSEVAEKR [_TTGFYSGFSEVAEK(Crotonyl)R_]” registered a collision cross section in series [2] (charge state: 2, modification: Crotonyl) of 441.38 ± 0.77 Å². As to “VGTASVLQPVKK [_VGTASVLQPVK(Trimethyl (K))K_]”, the collision cross section in series [2] (charge state: 2, modification: Trimethyl (K)) is on record as 394.06 ± 0.62 Å²; in series [2] (setting [6]) it was 455.76 ± 1.5 Å². Regarding VVDLLAPYAK [_VVDLLAPY(Phospho (Y))AK_], the collision cross section in series [2] (setting [5]) is 379.49 ± 0.074 Å². Turning to “GSLGAQKLANTCFNEIEK [_GSLGAQK(Butyryl)LANTCFNEIEK_]”, the collision cross section in series [2] (charge state: 2, modification: Butyryl) was determined as 475.25 ± 0.74 Å². With “VGLQVVAVKAPGFGDNR [_VGLQVVAVK(Malonyl)APGFGDNR_]”, the collision cross section in series [2] (charge state: 2, modification: Malonyl) came to 445.13 ± 1 Å²; in series [2] (charge state: 3, modification: Malonyl) it was 541.36 ± 0.027 Å².
